Reference: patent publication US20080199851A1
Values joined by “and” are separate entries in the source; they are usually repeats but may differ in a detail not shown here. Equal entries are not always repeated.

Columns and labels:
[1] = molecular target: Inactivated influenza B virus Hong Kong 5/72 (Influenza B virus Hong Kong 5/72); assay: lateral-flow sandwich, M2110171 line + 2/3-gold, 0.021 HA/test
[2] = molecular target: Inactivated influenza B virus Hong Kong 5/72 (Influenza B virus Hong Kong 5/72); assay: lateral-flow sandwich, M2110171 line + 2/3-Eu, 0.0021 HA units
[3] = molecular target: Inactivated influenza B virus Hong Kong 5/72 (Influenza B virus Hong Kong 5/72); assay: lateral-flow sandwich, M2110171 line + 2/3-Eu, 0.002 HA units/test, against 0 HA
[4] = molecular target: Inactivated influenza B virus Hong Kong 5/72 (Influenza B virus Hong Kong 5/72); assay: lateral-flow sandwich, M2110171 line + 2/3-Eu, 0.004 HA units/test, against 0 HA
[5] = molecular target: Inactivated influenza B virus Hong Kong 5/72 (Influenza B virus Hong Kong 5/72); assay: lateral-flow sandwich, M2110171 line + 2/3-Eu, 0.032 HA units/test
[6] = molecular target: Inactivated influenza B virus Hong Kong 5/72 (Influenza B virus Hong Kong 5/72); assay: lateral-flow sandwich, M2110171 line + 2/3-Eu, 0.0082 HA units
[7] = molecular target: Inactivated influenza B virus Hong Kong 5/72 (Influenza B virus Hong Kong 5/72); assay: lateral-flow sandwich, M2110171 line + 2/3-Eu, 0.008 HA units/test
[8] = molecular target: Inactivated influenza B virus Hong Kong 5/72 (Influenza B virus Hong Kong 5/72); assay: lateral-flow sandwich, M2110171 line + 2/3-Eu, 0.0328 HA units
[9] = molecular target: Inactivated influenza B virus Hong Kong 5/72 (Influenza B virus Hong Kong 5/72); assay: lateral-flow sandwich, M2110171 line + 2/3-Eu, 0.016 HA units/test
[10] = molecular target: Inactivated influenza B virus Hong Kong 5/72 (Influenza B virus Hong Kong 5/72); assay: lateral-flow sandwich, M2110171 line + 2/3-Eu, 0.002 HA units/test
[11] = molecular target: Inactivated influenza B virus Hong Kong 5/72 (Influenza B virus Hong Kong 5/72); assay: lateral-flow sandwich, M2110171 line + 2/3-Eu, 0.0123 HA units
[12] = molecular target: Inactivated influenza B virus Hong Kong 5/72 (Influenza B virus Hong Kong 5/72); assay: lateral-flow sandwich, M2110171 line + 2/3-gold, 0.041 HA/test
[13] = molecular target: Inactivated influenza B virus Hong Kong 5/72 (Influenza B virus Hong Kong 5/72); assay: lateral-flow sandwich, M2110171 line + 2/3-Eu, 0.032 HA units/test, against 0 HA
[14] = molecular target: Inactivated influenza B virus Hong Kong 5/72 (Influenza B virus Hong Kong 5/72); assay: lateral-flow sandwich, M2110171 line + 2/3-Eu, 0.004 HA units/test
[15] = molecular target: Inactivated influenza B virus Hong Kong 5/72 (Influenza B virus Hong Kong 5/72); assay: lateral-flow sandwich, M2110171 line + 2/3-Eu, 0.016 HA units/test, against 0 HA
[16] = molecular target: Inactivated influenza B virus Hong Kong 5/72 (Influenza B virus Hong Kong 5/72); assay: lateral-flow sandwich, B line: M2110171 striped + 2/3-Eu
[17] = molecular target: Inactivated influenza B virus Hong Kong 5/72 (Influenza B virus Hong Kong 5/72); assay: lateral-flow sandwich, M2110171 line + 2/3-Eu, 0.0041 HA units
[18] = molecular target: Inactivated influenza B virus Hong Kong 5/72 (Influenza B virus Hong Kong 5/72); assay: lateral-flow sandwich, M2110171 line + 2/3-Eu, 0.0164 HA units
[19] = molecular target: Inactivated influenza B virus Hong Kong 5/72 (Influenza B virus Hong Kong 5/72); assay: lateral-flow sandwich, M2110171 line + 2/3-Eu, 0.008 HA units/test, against 0 HA
[20] = molecular target: Inactivated influenza B virus Hong Kong 5/72 (Influenza B virus Hong Kong 5/72); assay: lateral-flow sandwich, M2110171 line + 2/3-gold, 0.082 HA/test
[21] = molecular target: Inactivated influenza B virus Hong Kong 5/72 (Influenza B virus Hong Kong 5/72); assay: lateral-flow sandwich, M2110171 line + 2/3-gold, 0.164 HA/test
[22] = molecular target: Inactivated influenza A virus Texas 1/77 (H3N2) (Influenza A virus Texas 1/77 (H3N2)); assay: lateral-flow sandwich, 7304 line + M4090913-Eu, 0.164 HA units
[23] = molecular target: Inactivated influenza B virus Hong Kong 5/72 (Influenza B virus Hong Kong 5/72); assay: lateral-flow sandwich, A line: 7304 striped + M4090913-Eu
[24] = molecular target: Inactivated influenza A virus Texas 1/77 (H3N2) (Influenza A virus Texas 1/77 (H3N2)); assay: lateral-flow sandwich, 7304 line + M4090913-Eu, 0.021 HA units
[25] = molecular target: Inactivated influenza A virus Texas 1/77 (H3N2) (Influenza A virus Texas 1/77 (H3N2)); assay: lateral-flow sandwich, 7304 line + M4090913-Eu, 0.021 HA unit
[26] = molecular target: Inactivated influenza A virus Texas 1/77 (H3N2) (Influenza A virus Texas 1/77 (H3N2)); assay: lateral-flow sandwich, 7304 line + M4090913-Eu, 0.041 HA units
[27] = molecular target: Inactivated influenza A virus Texas 1/77 (H3N2) (Influenza A virus Texas 1/77 (H3N2)); assay: lateral-flow sandwich, 7304 line + M4090913-Eu, 0.082 HA units
[28] = molecular target: Inactivated influenza A virus Texas 1/77 (H3N2) (Influenza A virus Texas 1/77 (H3N2)); assay: lateral-flow sandwich, 7304 line + M4090913-Eu, 0.02 HA units/test, against 0 HA
[29] = molecular target: Inactivated influenza A virus Texas 1/77 (H3N2) (Influenza A virus Texas 1/77 (H3N2)); assay: lateral-flow sandwich, 7304 line + M4090913-gold, 0.21 HA/test
[30] = molecular target: Inactivated influenza A virus Texas 1/77 (H3N2) (Influenza A virus Texas 1/77 (H3N2)); assay: lateral-flow sandwich, 7304 line + M4090913-Eu, 1 HA unit/test, against 0 HA
[31] = molecular target: Inactivated influenza A virus Texas 1/77 (H3N2) (Influenza A virus Texas 1/77 (H3N2)); assay: lateral-flow sandwich, 7304 line + M4090913-Eu, 0.04 HA units/test, against 0 HA
[32] = molecular target: Inactivated influenza A virus Texas 1/77 (H3N2) (Influenza A virus Texas 1/77 (H3N2)); assay: lateral-flow sandwich, 7304 line + M4090913-Eu, 0.123 HA units
[33] = molecular target: Inactivated influenza A virus Texas 1/77 (H3N2) (Influenza A virus Texas 1/77 (H3N2)); assay: lateral-flow sandwich, 7304 line + M4090913-Eu, 0.01 HA units/test, against 0 HA
[34] = molecular target: Inactivated influenza A virus Texas 1/77 (H3N2) (Influenza A virus Texas 1/77 (H3N2)); assay: lateral-flow sandwich, 7304 line + M4090913-Eu, 0.1 HA units/test, against 0 HA
[35] = molecular target: Inactivated influenza A virus Texas 1/77 (H3N2) (Influenza A virus Texas 1/77 (H3N2)); assay: lateral-flow sandwich, 7304 line + M4090913-gold, 1.64 HA/test
[36] = molecular target: Inactivated influenza A virus Texas 1/77 (H3N2) (Influenza A virus Texas 1/77 (H3N2)); assay: lateral-flow sandwich, 7304 line + M4090913-gold, 0.105 HA/test
[37] = molecular target: Inactivated influenza A virus Texas 1/77 (H3N2) (Influenza A virus Texas 1/77 (H3N2)); assay: lateral-flow sandwich, 7304 line + M4090913-Eu, 0.1 HA units/test
[38] = molecular target: Inactivated influenza A virus Texas 1/77 (H3N2) (Influenza A virus Texas 1/77 (H3N2)); assay: lateral-flow sandwich, 7304 line + M4090913-Eu, 1 HA unit/test
[39] = molecular target: Inactivated influenza A virus Texas 1/77 (H3N2) (Influenza A virus Texas 1/77 (H3N2)); assay: lateral-flow sandwich, 7304 line + M4090913-Eu, 0.01 HA units/test
[40] = molecular target: Inactivated influenza A virus Texas 1/77 (H3N2) (Influenza A virus Texas 1/77 (H3N2)); assay: lateral-flow sandwich, 7304 line + M4090913-gold, 0.82 HA/test
[41] = molecular target: Inactivated influenza A virus Texas 1/77 (H3N2) (Influenza A virus Texas 1/77 (H3N2)); assay: lateral-flow sandwich, 7304 line + M4090913-Eu, 0.04 HA units/test
[42] = molecular target: Inactivated influenza A virus Texas 1/77 (H3N2) (Influenza A virus Texas 1/77 (H3N2)); assay: lateral-flow sandwich, 7304 line + M4090913-gold, 0.41 HA/test
[43] = molecular target: Inactivated influenza A virus Texas 1/77 (H3N2) (Influenza A virus Texas 1/77 (H3N2)); assay: lateral-flow sandwich, 7304 line + M4090913-Eu, 0.02 HA units/test
[44] = molecular target: Inactivated influenza A virus Texas 1/77 (H3N2) (Influenza A virus Texas 1/77 (H3N2)); assay: lateral-flow sandwich, 7304 line + M4090913-Eu, 0.328 HA units
[45] = molecular target: Inactivated influenza B virus Hong Kong 5/72 (Influenza B virus Hong Kong 5/72); assay: lateral-flow sandwich, 9901 line + 2/3-Eu, 0.0164 HA units
[46] = molecular target: Inactivated influenza B virus Hong Kong 5/72 (Influenza B virus Hong Kong 5/72); assay: lateral-flow sandwich, 9901 line + 2/3-Eu, 0.0328 HA units
[47] = molecular target: Inactivated influenza B virus Hong Kong 5/72 (Influenza B virus Hong Kong 5/72); assay: lateral-flow sandwich, 9901 line + 2/3-Eu, 0.0041 HA units
[48] = molecular target: Inactivated influenza B virus Hong Kong 5/72 (Influenza B virus Hong Kong 5/72)
[49] = molecular target: Inactivated influenza B virus Hong Kong 5/72 (Influenza B virus Hong Kong 5/72); assay: lateral-flow sandwich, 9901 line + 2/3-Eu, 0.0123 HA units
[50] = molecular target: Inactivated influenza B virus Hong Kong 5/72 (Influenza B virus Hong Kong 5/72); assay: lateral-flow sandwich, 9901 line + 2/3-Eu, 0.0082 HA units
[51] = molecular target: Inactivated influenza B virus Hong Kong 5/72 (Influenza B virus Hong Kong 5/72); assay: lateral-flow sandwich, 9901 line + 2/3-Eu, 0.0021 HA units

## Anti-Flu B nucleoprotein M2110171 (Fitzgerald) (antibody)
[1]
  Peak Intensity: 2.8 and 2.7
  Peak Intensity(avg): 2.78
[2]
  fluorescence intensity (AVG): 1380
[3]
  signal/noise: 3.5
[4]
  signal/noise: 6
[5]
  Net peak height: 7200 and 6970
  Net peak height (AVG): 7090
[6]
  fluorescence intensity (AVG): 3590
[7]
  Net peak height: 1630 and 1700
  Net peak height (AVG): 1670
[8]
  fluorescence intensity (AVG): 12800
[9]
  Net peak height: 3330 and 2570
  Net peak height (AVG): 2950
[10]
  Net peak height: 496 and 539
  Net peak height (AVG): 517
[11]
  fluorescence intensity (AVG): 6550
[12]
  Peak Intensity: 4.8 and 4.6
  Peak Intensity(avg): 4.67
[13]
  signal/noise: 47.6
[14]
  Net peak height: 884 and 896
  Net peak height (AVG): 890
[15]
  signal/noise: 19.8
[16]
  Signal/noise of test line: 437
[17]
  fluorescence intensity (AVG): 2670
[18]
  fluorescence intensity (AVG): 7130
[19]
  signal/noise: 11.2
[20]
  Peak Intensity: 7.3 and 8.2
  Peak Intensity(avg): 7.76
[21]
  Peak Intensity: 14.4 and 13.3
  Peak Intensity(avg): 13.8

## anti-Flu A Medix 7304 antibody
[22]
  fluorescence intensity (AVG): 4080
[23]
  Signal/noise of test line: 4.8
[24]
  fluorescence intensity (AVG): 1270
[25]
  Signal/noise (S/N) ratio: 2.03
[26]
  fluorescence intensity (AVG): 1600
[27]
  fluorescence intensity (AVG): 2280
[28]
  S/N: 1.8
[29]
  Peak Intensity: 4.8 and 8.6
  Peak Intensity(avg): 6.7
[30]
  S/N: 37.4
[31]
  S/N: 2.6
[32]
  fluorescence intensity (AVG): 3730
[33]
  S/N: 1.4
[34]
  S/N: 4.5
[35]
  Peak Intensity: 26.4 and 22.5
  Peak Intensity(avg): 24.5
[36]
  Peak Intensity: 2.2 and 3.3
  Peak Intensity(avg): 2.8
[37]
  fluorescence signal: 2550 and 2400
  fluorescence signal (AVG): 2470
[38]
  fluorescence signal: 21100 and 20000
  fluorescence signal (AVG): 20500
[39]
  fluorescence signal: 794 and 776
  fluorescence signal (AVG): 785
[40]
  Peak Intensity: 14.8 and 13.5
  Peak Intensity(avg): 14.1
[41]
  fluorescence signal: 1420 and 1440
  fluorescence signal (AVG): 1430
[42]
  Peak Intensity: 13.2 and 9.1
  Peak Intensity(avg): 11.2
[43]
  fluorescence signal: 936 and 1040
  fluorescence signal (AVG): 987
[44]
  fluorescence intensity (AVG): 8690

## anti-Flu B Medix 9901 antibody
[45]
  fluorescence intensity (AVG): 5440
[46]
  fluorescence intensity (AVG): 9990
[47]
  fluorescence intensity (AVG): 1580
[48]
  S/N ratio: 4.96
[49]
  fluorescence intensity (AVG): 2710
[50]
  fluorescence intensity (AVG): 2480
[51]
  fluorescence intensity (AVG): 1490
